Assays:
[1] = target: T1, mouse MET ECD (mouse, UniProt P16056 25-931); experiment: ELISA, MET ECD coated, mAb 0-40 nM, mouse IgG format
T1 construct: range 1-931; recombinant; range as printed includes the signal peptide; also called mMET; mMET ECD

[2] = target: T2, human MET ECD (human, UniProt P08581 25-932); experiment: as above
T2 construct: range 1-932; recombinant; range as printed includes the signal peptide; also called hMET; hMET ECD

[3] = target: T3, native mouse MET on living cells (mouse, UniProt P16056 25-1379); experiment: cell-based or functional assay
[4] = target: T4, native human MET on living cells (human, UniProt P08581 25-1390); experiment: cell-based or functional assay
[5] = target: T1, mouse MET ECD; experiment: ELISA, MET ECD coated, mAb 0-20 nM
Experimental: (§1) Production (by transient transfection of mammalian cells) and purification (by protein A affinity chromatography) of the resulting chimeric llama-human IgG1 molecules was outsourced to U-protein Express. Binding of chimeric mAbs to MET was determined by ELISA using hMET or mMET ECD in solid phase and increasing concentrations of antibodies (0-20 nM) in solution. […] Binding capacity (EMAX) varied from antibody to antibody, possibly due to partial epitope exposure in the immobilized antigen, but was similar in the human and mouse setting.

[6] = target: T2, human MET ECD; experiment: ELISA, MET ECD coated, mAb 0-20 nM
Experimental: as §1

[7] = target: human MET ECD mutant E (mutations 2, 3, 4) (human) (UniProt P08581); experiment: ELISA, WT or mutant hMET ECD coated
[8] = target: human MET ECD mutant A (mutations 1, 2, 3) (human) (UniProt P08581); experiment: ELISA, WT or mutant hMET ECD coated
[9] = target: human MET ECD mutant H (mutations 2, 4) (human) (UniProt P08581); experiment: ELISA, WT or mutant hMET ECD coated
[10] = target: human MET ECD mutant D (mutations 1, 2) (human) (UniProt P08581); experiment: ELISA, WT or mutant hMET ECD coated
[11] = target: T2, human MET ECD; experiment: ELISA, WT or mutant hMET ECD coated
Experimental: Using human MET as a template, we mutagenized each of these residues in different permutations, generating a series of MET mutants that are fully human except for specific residues, which are llama. Next, we tested the affinity of selected SEMA-binding mAbs (71D6, 71C3, 71D4, 71A3, 71G2) and PSI-binding mAbs (76H10 and 71G3) for these MET mutants by ELISA. To this end, the various MET proteins were immobilized in solid phase (100 ng/well in a 96-well plate) and then exposed to increasing concentrations of antibodies (0-50 nM) solution. […] Wild-type human MET was used as positive control.
TABLE 24 The epitopes of MET responsible for agonistic antibody binding represent residues conserved among H. sapiens, M. musculus, R. norvegicus, M. fascicularis but not among the same species and L. glama. The relevance of residues conserved among human, mouse, rat, cynomolgus monkey but not llama MET for binding to agonistic mAbs was tested by ELISA. Wild-type (WT) or mutant (MT) human MET ECD was immobilized in solid phase and exposed to increasing concentrations of mAbs in solution. […] All binding values were normalized to the WT protein and are expressed as % binding (EMAX) compared to WT MET.

[12] = target: T3, native mouse MET on living cells; experiment: cell-based or functional assay; remark: listed apart in the source
[13] = target: T4, native human MET on living cells; experiment: cell-based or functional assay; remark: listed apart in the source
[14] = target: T4, native human MET on living cells; experiment: FACS, A549 cells
[15] = target: T3, native mouse MET on living cells; experiment: cell-based or functional assay; remark: listed apart in the source
[16] = target: T4, native human MET on living cells; experiment: cell-based or functional assay; remark: listed apart in the source
[17] = target: T3, native mouse MET on living cells; experiment: FACS, MLP29 cells
[18] = target: human MET ECD mutant I (mutations 6, 7, 8) (human) (UniProt P08581); experiment: ELISA, WT or mutant hMET ECD coated
[19] = target: human MET ECD mutant J (mutations 6, 7) (human) (UniProt P08581); experiment: ELISA, WT or mutant hMET ECD coated
[20] = target: T1, mouse MET ECD; experiment: ELISA, mMET ECD coated

Molecule | phospho-MET ELISA EMAX, MLP29 cells [3] | phospho-MET ELISA EMAX, A549 cells [4] | EMAX [5] | EMAX [6] | % binding (EMAX) vs WT MET ECD [7] | % binding (EMAX) vs WT MET ECD [8] | % binding (EMAX) vs WT MET ECD [9] | % binding (EMAX) vs WT MET ECD [10] | % binding (EMAX) vs WT MET ECD [11] | protection from staurosporine-induced apoptosis EC50, MLP29 cells [12] | protection from staurosporine-induced apoptosis EMAX, MLP29 cells [12] | protection from staurosporine-induced apoptosis EC50, MCF10A cells [13] | protection from staurosporine-induced apoptosis EMAX, MCF10A cells [13] | MLP29 br. m. (branch n.) [15] | LOC br. m. (branch n.) [16] | other results
5D5 mouse anti-human MET antibody |  |  |  |  |  |  |  |  |  |  |  |  |  |  |  | EC50 [1]: > 40 nM; EC50 [2]: 0.197 nM; EMAX [2]: 3.16 OD450
71C3 chimeric llama-human IgG1 mAb (antibody, V domains shown, human IgG1 CH1-CH2-CH3 and human CL lambda) VH: QLQLVESGGGLVQPGGSLRLSCAASGFTFSSHAMSWVRQAPGKGLEWVSAINSGGGSTSYADSVKGRFTISRDNAKNTLYLQMNSLKPEDTAVYYCAKELRFDLARYTDYEAWDYWGQGTQVTVSS VL: SYELTQPSALSVTLGQTAKITCQGGSLGSSYAHWYQQKPGQAPVLVIYDDDSRPSGIPERFSGSSSGGTATLTISGAQAEDEGDYYCQSADSSGNAAVFGGGTHLTVL | 98.8 % HGF activity | 86.2 % HGF activity | 2.24 OD450 AU | 2.46 OD450 AU | 59.6% | 99.8% | 61.6% | 102% | 100% | 31 nM | 51.3% | 31.9 nM | 50.2% |  |  | 
71D4 chimeric llama-human IgG1 mAb (antibody, V domains shown, human IgG1 CH1-CH2-CH3 and human CL lambda) VH: ELQLVESGGGLVQPGGSLRLSCAASGFTFSGYGMSWVRQAPGKGLEWVSDINSGGGSTSYADSVKGRFTISRDNAKNTLYLQMNSLKPEDTAVYYCAKDMRLYLARYNDYEAWDYWGQGTQVTVSS VL: SSALTQPSALSVTLGQTAKITCQGGSLGSSYAHWYQQKPGQAPVLVIYDDDSRPSGIPERFSGSSSGGTATLTISGAQAEDEGDYYCQSADSSGNAAVFGGGTHLTVL | 95.3 % HGF activity | 84.6 % HGF activity | 1.17 OD450 AU | 1.43 OD450 AU | 57.2% | 114% | 58.7% | 120% | 100% | 29.8 nM | 52.1% | 30.2 nM | 51.7% |  |  | 
71A3 chimeric llama-human IgG1 mAb (antibody, V domains shown, human IgG1 CH1-CH2-CH3 and human CL lambda) VH: EVQLVESGGGLVQPGGSLRLSCAASGFSFKDYDITWVRQAPGKGLEWVSTITSRSGSTSYVDSVKGRFTISGDNAKNTLYLQMNSLKPEDTAVYYCAKVYATTWDVGPLGYGMDYWGKGTLVTVSS VL: SYELTQPSALSVTLGQTAKITCQGGSLGSSYAHWYQQKPGQAPVLVIYDDDSRPSGIPERFSGSSSGGTATLTISGAQAEDEGDYYCQSADSSGNAAVFGGGTHLTVL | 96 % HGF activity | 86.6 % HGF activity | 2.73 OD450 AU | 2.4 OD450 AU | 65.4% | 117% | 76.7% | 128% | 100% | < 0.5 nM | 70.5% | < 0.5 nM | 71.7% |  |  | 
71G2 chimeric llama-human IgG1 mAb (antibody, V domains shown, human IgG1 CH1-CH2-CH3 and human CL lambda; also called 71G2 Human IgG1/lambda) VH: EVQLQESGGGLVQPGGSLRLSCAASGFTFSIYDMSWVRQAPGKGLEWVSTINSDGSSTSYVDSVKGRFTISRDNAKNTLYLQMNSLKPEDTAVYYCAKVYGSTWDVGPMGYGMDYWGKGTLVTVSS VL: SSALTQPSALSVSLGQTARITCQGGSLGSSYAHWYQQKPGQAPVLVIYGDDSRPSGIPERFSGSSSGGTATLTISGAQAEDEDDYYCQSTDSSGNTVFGGGTRLTVL | 110 % HGF activity | 101 % HGF activity | 3.17 OD450 AU | 3.09 OD450 AU | 41.4% | 92.1% | 40.2% | 114% | 100% | 1.99 nM | 58.3% | 1.06 nM | 64.8% | 45 branches per spheroid | 31.7 branches per spheroid | EMAX [14]: 137 % CTR; MLP29 MET act. (EMAX, % HGF) [15]: 110 % HGF; A549 MET act. (EMAX, % HGF) [16]: 106 % HGF; EMAX [17]: 131 % CTR
76H10 chimeric llama-human IgG1 mAb (antibody, V domains shown, human IgG1 CH1-CH2-CH3 and human CL lambda) VH: QLQLVESGGGLVQPGGSLRVSCTASGFTFNTYYMTWVRQAPGKGLEWVSDINSGGGTYYADSVKGRFTISRDNAKNTLYLQMNSLKPEDTALYYCVRVRIWPVGYDYWGQGTQVTVSS VL: QAVVTQEPSLSVSPGGTVTLTCGLSSGSVTTSNYPGWFQQTPGQAPRTLIYNTNNRHSGVPSRFSGSISGNKAALTITGAQPEDEADYYCSLYTGSYTTVFGGGTHLTVL | 64.1 % HGF activity | 61.2 % HGF activity | 2.66 OD450 AU | 2.67 OD450 AU |  |  |  |  |  | > 32 nM | 27.2% | > 32 nM | 22.8% |  |  | % binding (EMAX) vs WT MET ECD [18]: 100%; % binding (EMAX) vs WT MET ECD [19]: 89%
71G3 chimeric llama-human IgG1 mAb (antibody, V domains shown, human IgG1 CH1-CH2-CH3 and human CL lambda; also called 71G3 Human IgG1/lambda) VH: QVQLVESGGGLVQPGGSLRVSCAASGFTFSTYYMSWVRQAPGKGLEWVSDIRTDGGTYYADSVKGRFTMSRDNAKNTLYLQMNSLKPEDTALYYCARTRIFPSGYDYWGQGTQVTVSS VL: QAVVTQEPSLSVSPGGTVTLTCGLSSGSVTTSNYPGWFQQTPGQAPRTLIYNTNSRHSGVPSRFSGSISGNKAALTIMGAQPEDEADYYCSLYPGSTTVFGGGTHLTVL | 97.8 % HGF activity | 95.7 % HGF activity | 2.98 OD450 AU | 2.83 OD450 AU |  |  |  |  |  | 4.85 nM | 62.3% | 5.04 nM | 65.2% | 29.3 branches per spheroid | 22.3 branches per spheroid | % binding (EMAX) vs WT MET ECD [18]: 100%; % binding (EMAX) vs WT MET ECD [19]: 91.2%; EMAX [14]: 110 % CTR; MLP29 MET act. (EMAX, % HGF) [15]: 96.8 % HGF; A549 MET act. (EMAX, % HGF) [16]: 94.3 % HGF; EMAX [17]: 112 % CTR
71D6 llama-mouse chimeric mAb (mouse IgG1/lambda) (antibody, V domains shown, also called 71D6 Mouse IgG1/lambda) VH: ELQLVESGGGLVQPGGSLRLSCAASGFTFSSYGMSWVRQAPGKGLEWVSAINSYGGSTSYADSVKGRFTISRDNAKNTLYLQMNSLKPEDTAVYYCAKEVRADLSRYNDYESYDYWGQGTQVTVSS VL: QPVLNQPSALSVTLGQTAKITCQGGSLGARYAHWYQQKPGQAPVLVIYDDDSRPSGIPERFSGSSSGGTATLTISGAQAEDEGDYYCQSADSSGSVFGGGTHLTVLG |  |  |  |  |  |  |  |  |  |  |  |  |  | 39.5 branches per spheroid | 30.4 branches per spheroid | EC50 [20]: 0.036 nM
